This note sets out measurements from PMC2653023, “Improving the functional expression of a Bacillus licheniformis laccase by random and site-directed mutagenesis” (BMC Biotechnology, 2009).

The term Km denotes the concentration of substrate that gives half-maximal velocity.

Sequences and labels used below:
B1: CotA (Bacillus licheniformis DSM 13 = ATCC 14580) (protein)
chain: MKLEKFVDRLPIPQVLQPQSKSKEMTYYEVTMKEFQQQLHRDLPPTRLFGYNGVYPGPTFEVQKHEKVAVKWLNKLPDRHFLPVDHTLHDDGHHEHEVKTVVHLHGGCTPADSDGYPEAWYTKDFHAKGPFFEREVYEYPNEQDATALWYHDHAMAITRLNVYAGLVGLYFIRDREERSLNLPKGEYEIPLLIQDKSFHEDGSLFYPRQPDNPSPDLPDPSIVPAFCGDTILVNGKVWPFAELEPRKYRFRILNASNTRIFELYFDHDITCHQIGTDGGLLQHPVKVNELVIAPAERCDIIVDFSRAEGKTVTLKKRIGCGGQDADPDTDADIMQFRISKPLKQKDTSSLPRILRKRPFYRRHKINALRNLSLGAAVDQYGRPVLLLNNTKWHEPVTETPALGSTEIWSIINAGRAIHPIHLHLVQFMILDHRPFDIERYQENGELVFTGPAVPPAPNEKGLKDTVKVPPGSVTRIIATFAPYSGRYVWHCHILEHEDYDMMRPLEVTDVRHQ
notes: untagged full-length CotA in pET22b+ (NdeI/EcoRI, own stop codon), recombinant from E. coli BL21(DE3), heat step and Q-Sepharose, ~65 kDa; primer-encoded N-terminus MKLEKFVDR, C-terminus EVTDVRHQ
B2: CotA (Bacillus licheniformis DSM 13 = ATCC 14580; D500G/K316N) (protein)
chain: MKLEKFVDRLPIPQVLQPQSKSKEMTYYEVTMKEFQQQLHRDLPPTRLFGYNGVYPGPTFEVQKHEKVAVKWLNKLPDRHFLPVDHTLHDDGHHEHEVKTVVHLHGGCTPADSDGYPEAWYTKDFHAKGPFFEREVYEYPNEQDATALWYHDHAMAITRLNVYAGLVGLYFIRDREERSLNLPKGEYEIPLLIQDKSFHEDGSLFYPRQPDNPSPDLPDPSIVPAFCGDTILVNGKVWPFAELEPRKYRFRILNASNTRIFELYFDHDITCHQIGTDGGLLQHPVKVNELVIAPAERCDIIVDFSRAEGKTVTLKNRIGCGGQDADPDTDADIMQFRISKPLKQKDTSSLPRILRKRPFYRRHKINALRNLSLGAAVDQYGRPVLLLNNTKWHEPVTETPALGSTEIWSIINAGRAIHPIHLHLVQFMILDHRPFDIERYQENGELVFTGPAVPPAPNEKGLKDTVKVPPGSVTRIIATFAPYSGRYVWHCHILEHEDYGMMRPLEVTDVRHQ
notes: as for B1
B3: CotA (Bacillus licheniformis DSM 13 = ATCC 14580; K316N) (protein)
chain: MKLEKFVDRLPIPQVLQPQSKSKEMTYYEVTMKEFQQQLHRDLPPTRLFGYNGVYPGPTFEVQKHEKVAVKWLNKLPDRHFLPVDHTLHDDGHHEHEVKTVVHLHGGCTPADSDGYPEAWYTKDFHAKGPFFEREVYEYPNEQDATALWYHDHAMAITRLNVYAGLVGLYFIRDREERSLNLPKGEYEIPLLIQDKSFHEDGSLFYPRQPDNPSPDLPDPSIVPAFCGDTILVNGKVWPFAELEPRKYRFRILNASNTRIFELYFDHDITCHQIGTDGGLLQHPVKVNELVIAPAERCDIIVDFSRAEGKTVTLKNRIGCGGQDADPDTDADIMQFRISKPLKQKDTSSLPRILRKRPFYRRHKINALRNLSLGAAVDQYGRPVLLLNNTKWHEPVTETPALGSTEIWSIINAGRAIHPIHLHLVQFMILDHRPFDIERYQENGELVFTGPAVPPAPNEKGLKDTVKVPPGSVTRIIATFAPYSGRYVWHCHILEHEDYDMMRPLEVTDVRHQ
notes: as for B1
B4: CotA (Bacillus licheniformis DSM 13 = ATCC 14580; D500G) (protein)
chain: MKLEKFVDRLPIPQVLQPQSKSKEMTYYEVTMKEFQQQLHRDLPPTRLFGYNGVYPGPTFEVQKHEKVAVKWLNKLPDRHFLPVDHTLHDDGHHEHEVKTVVHLHGGCTPADSDGYPEAWYTKDFHAKGPFFEREVYEYPNEQDATALWYHDHAMAITRLNVYAGLVGLYFIRDREERSLNLPKGEYEIPLLIQDKSFHEDGSLFYPRQPDNPSPDLPDPSIVPAFCGDTILVNGKVWPFAELEPRKYRFRILNASNTRIFELYFDHDITCHQIGTDGGLLQHPVKVNELVIAPAERCDIIVDFSRAEGKTVTLKKRIGCGGQDADPDTDADIMQFRISKPLKQKDTSSLPRILRKRPFYRRHKINALRNLSLGAAVDQYGRPVLLLNNTKWHEPVTETPALGSTEIWSIINAGRAIHPIHLHLVQFMILDHRPFDIERYQENGELVFTGPAVPPAPNEKGLKDTVKVPPGSVTRIIATFAPYSGRYVWHCHILEHEDYGMMRPLEVTDVRHQ
notes: as for B1

Substrate in the data set: CCn1c(=NN=c2sc3cc(S(=O)(=O)O)ccc3n2CC)sc2cc(S(=O)(=O)O)ccc21
The data set is described as follows: purified protein. It counts as biochemical, Bacillus licheniformis. The note with it: 0.1 M citrate/phosphate buffer, pH 4.0, room temperature, 5-500 μM ABTS, co-substrate O2, free enzyme.
Take B1: the Km is 6.5 ± 0.2 µM.
Next, B2: 8.4 ± 0.2 µM; B3: 10.0 ± 0.3 µM; B4: 9.5 ± 0.2 µM.
